Laboratory results as given in patent US20150098939A1 (Sanofi, published 2015).

Legend:
[1] = target: T1, human GPVI protein, soluble extracellular domain (D1 and D2) (human, UniProt Q9HCN6 21-267); assay: SPR (Biacore 3000), human GPVI immobilised, Fab analyte
T1 construct: extracellular domain; also called hGPVI; human glycoprotein VI
T1 sequence (looked up): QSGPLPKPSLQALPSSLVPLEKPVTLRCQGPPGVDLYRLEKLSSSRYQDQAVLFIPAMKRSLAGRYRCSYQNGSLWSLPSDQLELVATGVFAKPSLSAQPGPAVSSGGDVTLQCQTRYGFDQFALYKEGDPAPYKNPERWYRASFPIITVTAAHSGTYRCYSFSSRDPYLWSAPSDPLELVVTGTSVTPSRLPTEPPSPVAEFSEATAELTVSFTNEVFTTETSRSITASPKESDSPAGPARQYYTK
Procedure: Surface plasmon resonance technology on a Biacore 3000 (GE Healthcare) was used for detailed kinetic characterisation of purified antibody fragments. An assay with immobilised human GPVI was used. Typically, 300 RU of GPVI were immobilised on a research grade CM5 chip by amine reactive coupling, resulting in an Rmax of 200 RU for the bound antibody fragment. Binding kinetics were measured over a concentration range between 3.2 to 112 nM in HBS-EP (10 mM HEPES pH 7.4, 150 mM NaCl, 3 mM EDTA, 0.005% Surfactant P20) at a flow rate of 30 μl/min. Chip surfaces were regenerated with 10 mM glycine pH2.0. Kinetic parameters were analysed and calculated in the BIAevaluation program package (version 4.1) using a flow cell without immobilised GPVI as reference. A 1:1 binding model with mass transfer was applied for a global fit of the data for curves corresponding to analyte concentrations from 3-56 nM of Fab fragment.
Note that the Biacore assay used to measure the data in this example is different in terms of immobilized binding partner (GPVI versus the mAb/Fab fragment) and this leads to the different Biacore affinities as reported in Table 5.

human GPVI on platelets = target: T2, human GPVI on platelets (human, UniProt Q9HCN6 21-339); assay: cell-based or functional assay
T2 sequence (looked up): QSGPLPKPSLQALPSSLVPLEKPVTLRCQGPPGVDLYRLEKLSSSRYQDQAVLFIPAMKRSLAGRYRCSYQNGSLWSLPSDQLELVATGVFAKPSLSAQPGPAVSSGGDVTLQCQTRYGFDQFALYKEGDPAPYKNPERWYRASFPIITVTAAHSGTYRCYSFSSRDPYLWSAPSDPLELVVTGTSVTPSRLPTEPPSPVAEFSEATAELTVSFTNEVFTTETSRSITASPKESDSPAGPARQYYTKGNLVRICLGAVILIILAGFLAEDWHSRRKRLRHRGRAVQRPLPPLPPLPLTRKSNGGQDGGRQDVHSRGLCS

hGPVI-hFc fusion protein [2] = target: T3, hGPVI-hFc fusion protein (human); assay: DELFIA competition assay: Fab preincubated with GPVI-Fc (3 µg/ml), binding to collagen-coated plate, Test 2
T3 construct: also called GPVI-Fc; human GPVI-Fc fusion protein
Procedure: (§1) Collagen coated 384 well plates (Pierce) were blocked with 3% BSA for 2 h. Increasing concentrations of anti GPVI Fab fragments (0.3-20 μg/ml) were incubated with recombinant GPVI (Fusion protein of the extracellular domain of GPVI and Fc-Part of human IgG; 3 μg/ml). The GPVI-Fab mixture was added to collagen coated plates and incubated for 1 h at RT. 384 well plates were washed (DELFIA wash buffer, Perkin Elmer) five times and Eu-labelled anti-human IgG (100 ng/ml Perkin Elmer) was added. Following 1 h incubation at room temperature plates were washed again five times, enhancement solution (Perkin Elmer) was added and incubated for 10 min. Fluorescence was detected at 360/612 nm using a Tecan Ultra reader. Shown in Table 15 are examples of the inhibitory effect of recombinantly produced anti-GPVI Fab fragments on GPVI collagen binding.

hGPVI-hFc fusion protein [3] = target: T3, hGPVI-hFc fusion protein; assay: DELFIA competition assay: Fab preincubated with GPVI-Fc (3 µg/ml), binding to collagen-coated plate, Test 3
Procedure: as §1

hGPVI-hFc fusion protein [4] = target: T3, hGPVI-hFc fusion protein; assay: DELFIA competition assay: Fab preincubated with GPVI-Fc (3 µg/ml), binding to collagen-coated plate, Test 1
Procedure: as §1

B1: humanized anti-GPVI Fab VL1/VH3 (Fab, V domains shown)
VH: EVQLLESGPGLVAPSGSLSITCTVSGFSLTGYGVNWVRQPPGKGLEWLGMIWGDGSTDYQSTLKSRLSISKDNSKSQVFLKMNSLRTDDTARYYCARDLPMDYWGLGTSVTVSS
VL: DIQMTQSPSSLSASVGGRVTITCKASQDINKYIAWYQHKPGKGPSLLIHYTSTLQPGVPSRFSGSGSGRDYSFSISNLQPEDIATYYCLQYANLLTFGGGTKLEIKR
notes: Recombinant Fab: VH fused to CH1 of human IGHG1 (Q569F4), HC ends in DKTHT; VL fused to human constant kappa (Q502W4); also called VL1 with VH3
Binder B1 has a Kd [1] of 0.1 nM, a koff [1] of 2e-05 s⁻¹ and a kon [1] of 148000 M⁻¹ s⁻¹. For the same binder, the “IC50 for inhibition of collagen induced platelet aggregation (human PRP), Test 1” value (from here on “IC50 for inhibition … Test 1”) (human GPVI on platelets) was 1.7 µg/mL, the “IC50 for inhibition of collagen induced platelet aggregation (human PRP), Test 2” value (shortened to “IC50 for inhibition … Test 2”) (human GPVI on platelets) was 1.5 µg/mL and the “IC50 for inhibition of collagen induced platelet aggregation (human PRP), Test 3” value (“IC50 for inhibition … Test 3” below) (human GPVI on platelets) was 1.5 µg/mL. It also gave an IC50 (hGPVI-hFc fusion protein [2]) of 1.24 µg/mL, an IC50 (hGPVI-hFc fusion protein [3]) of 0.87 µg/mL and an IC50 (hGPVI-hFc fusion protein [4]) of 0.63 µg/mL.

B2: humanized anti-GPVI Fab VL3/VH2 (Fab, V domains shown)
VH: QVQLQESGPGLVAPSQSLSITCTVSGFSLTGYGVNWVRQPPSRGLEWLGMIWGDGSTDYQSTLKSRLSISKDNSKSQVFLKMNSLTTDDTARYYCARDLPMDYWGQGTSVTVSS
VL: DIQMTQSPSSLSASVGGRVTITCKASQDINKYIAWYQHKPGKGPSLLIHYTSTLQPGVPSRFSGSGSGRDYSFSISNLQPEDIATYYCLQYALLLTFGGGTKLEIKR
notes: Recombinant Fab: VH fused to CH1 of human IGHG1 (Q569F4), HC ends in DKTHT; VL fused to human constant kappa (Q502W4); also called VL3 with VH2
B2 was tested, and the Kd [1] was 0.2 nM, the koff [1] was 3e-05 s⁻¹ and the kon [1] was 132000 M⁻¹ s⁻¹. The “IC50 for inhibition … Test 1” value (human GPVI on platelets) was 1.9 µg/mL, the “IC50 for inhibition … Test 2” value (human GPVI on platelets) was 0.9 µg/mL and the “IC50 for inhibition … Test 3” value (human GPVI on platelets) was 2.1 µg/mL. The IC50 (hGPVI-hFc fusion protein [2]) was 0.9 µg/mL, the IC50 (hGPVI-hFc fusion protein [3]) was 1.04 µg/mL and the IC50 (hGPVI-hFc fusion protein [4]) was 0.67 µg/mL.

B3: humanized anti-GPVI Fab VL1/VH5 (Fab, V domains shown)
VH: QVQLQESGPGLVAPSQSLSITCTVSGFSLTGYGVNWVRQPPSRGLEWLGMIWGDGSTDYQSTLKSRLSISKDNSKSQVFLKMNSLTTDDTARYYCARDLPMDEWGQGTSVTVSS
VL: DIQMTQSPSSLSASVGGRVTITCKASQDINKYIAWYQHKPGKGPSLLIHYTSTLQPGVPSRFSGSGSGRDYSFSISNLQPEDIATYYCLQYANLLTFGGGTKLEIKR
notes: Recombinant Fab: VH fused to CH1 of human IGHG1 (Q569F4), HC ends in DKTHT; VL fused to human constant kappa (Q502W4); also called VL1 with VH5
B3 showed a Kd [1] of 0.4 nM, a koff [1] of 3e-05 s⁻¹ and a kon [1] of 81000 M⁻¹ s⁻¹. For the same binder, the “IC50 for inhibition … Test 1” value (human GPVI on platelets) was 1.9 µg/mL, the “IC50 for inhibition … Test 2” value (human GPVI on platelets) was 2.3 µg/mL and the “IC50 for inhibition … Test 3” value (human GPVI on platelets) was 1.2 µg/mL. For the same binder, the IC50 (hGPVI-hFc fusion protein [2]) was 1.58 µg/mL, the IC50 (hGPVI-hFc fusion protein [3]) was 1.24 µg/mL and the IC50 (hGPVI-hFc fusion protein [4]) was 1.41 µg/mL.

B4: humanized anti-GPVI Fab VL3/VH4 (Fab, V domains shown)
VH: QVQLQESGPGLVAPSQSLSITCTVSGFSLTYYGVNWVRQPPSRGLEWLGMIWGDGSTDYQSTLKSRLSISKDNSKSQVFLKMNSLTTDDTARYYCARDLPMDYWGQGTSVTVSS
VL: DIQMTQSPSSLSASVGGRVTITCKASQDINKYIAWYQHKPGKGPSLLIHYTSTLQPGVPSRFSGSGSGRDYSFSISNLQPEDIATYYCLQYALLLTFGGGTKLEIKR
notes: Recombinant Fab: VH fused to CH1 of human IGHG1 (Q569F4), HC ends in DKTHT; also called VL3 with VH4
B4 was tested, and the Kd [1] was 0.3 nM, the koff [1] was 4e-05 s⁻¹ and the kon [1] was 151000 M⁻¹ s⁻¹. For the same binder, the “IC50 for inhibition … Test 1” value (human GPVI on platelets) was 1 µg/mL, the “IC50 for inhibition … Test 2” value (human GPVI on platelets) was 2.3 µg/mL and the “IC50 for inhibition … Test 3” value (human GPVI on platelets) was 2 µg/mL. The IC50 (hGPVI-hFc fusion protein [2]) was 0.72 µg/mL, the IC50 (hGPVI-hFc fusion protein [3]) was 1.02 µg/mL and the IC50 (hGPVI-hFc fusion protein [4]) was 0.72 µg/mL.

B5: humanized anti-GPVI Fab VL1/VH1 (Fab, V domains shown)
VH: QVQLQESGPGLVAPSQSLSITCTVSGFSLTGYGVNWVRQPPSRGLEWLGMIWGDGSTDYQSTLKSRLSISKDTSKSQVFLKMNSLTTDDTARYYCARDLPMDYWGQGTSVTVSS
VL: DIQMTQSPSSLSASVGGRVTITCKASQDINKYIAWYQHKPGKGPSLLIHYTSTLQPGVPSRFSGSGSGRDYSFSISNLQPEDIATYYCLQYANLLTFGGGTKLEIKR
notes: Recombinant Fab: VH fused to CH1 of human IGHG1 (Q569F4), HC ends in DKTHT; VL fused to human constant kappa (Q502W4); also called VL1 with VH1
With B5 the Kd [1] was 0.4 nM, the koff [1] was 4e-05 s⁻¹ and the kon [1] was 111000 M⁻¹ s⁻¹. For the same binder, the “IC50 for inhibition … Test 1” value (human GPVI on platelets) was 1.5 µg/mL, the “IC50 for inhibition … Test 2” value (human GPVI on platelets) was 2.3 µg/mL and the IC50 (hGPVI-hFc fusion protein [2]) was 0.75 µg/mL. It also gave an IC50 (hGPVI-hFc fusion protein [3]) of 1 µg/mL and an IC50 (hGPVI-hFc fusion protein [4]) of 1.1 µg/mL.
